In the assay the target is AmHv1, Hv1-type proton channel of Acropora millepora, tagged with fluorescent proteins (Acropora millepora). As to the kind of experiment: FRET or BRET; spectral FRET (sensitized emission of the acceptor) in HEK293 cells co-expressing mCerulean-AmHv1 (donor) and mCitrine-AmHv1 (acceptor); apparent FRET efficiency against Id/Ia from 134 cells, fitted to a model of random assembly into a dimer. On the technique in general: In BRET a luciferase serves as donor, and the signal depends on an acceptor being close.

As usually defined, the stoichiometry N is a count of units in the complex or per binding partner. On to “AmHv1, Hv1-type proton channel of Acropora millepora, tagged with fluorescent proteins (natural protein)”, for which the stoichiometry N was 2.

The record behind these values is paper PMC8346283.
